One block for each molecule: values may come before it.
Legend:
[1] = molecular target: Mis12 complex (full length; MIS12, PMF1, NSL1, DSN1) (human) (UniProt Q9H081); experiment: ITC
[2] = molecular target: Mis12 complex (full length; MIS12, PMF1, NSL1, DSN1) (human) (UniProt Q9H081); experiment: BLI
[3] = molecular target: Mis12C/KNL1^2026-2342 complex (human) (UniProt Q9H081); experiment: BLI
[4] = molecular target: Ndc80 complex (NDC80/HEC1, NUF2, SPC24, SPC25) (human, UniProt O14777 1-642; Q9BZD4 1-464; Q8NBT2 1-197; Q9HBM1 1-224); experiment: BLI
[5] = molecular target: Mis12 complex mutant Mis12C^M3 (human) (UniProt Q9H081); experiment: ITC
[6] = molecular target: Mis12 complex mutant Mis12C^M4 (human) (UniProt Q9H081); experiment: ITC
[7] = molecular target: T1, DSN1 (subunit of the Mis12 complex in the KMN cryo-EM sample) (human, UniProt Q9H410 1-356); experiment: cryo-EM structure
T1 sequence (looked up): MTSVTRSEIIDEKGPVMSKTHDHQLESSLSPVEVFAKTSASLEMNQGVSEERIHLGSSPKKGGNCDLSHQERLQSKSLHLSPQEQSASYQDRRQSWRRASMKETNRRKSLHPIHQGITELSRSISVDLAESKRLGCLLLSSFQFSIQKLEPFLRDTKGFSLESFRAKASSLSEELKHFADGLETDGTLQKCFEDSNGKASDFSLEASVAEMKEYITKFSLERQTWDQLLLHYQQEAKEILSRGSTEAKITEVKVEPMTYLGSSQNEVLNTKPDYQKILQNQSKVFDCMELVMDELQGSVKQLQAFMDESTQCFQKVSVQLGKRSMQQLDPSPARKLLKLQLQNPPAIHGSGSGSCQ

[8] = molecular target: T2, NSL1 (subunit of the Mis12 complex in the KMN cryo-EM sample) (human, UniProt Q96IY1 1-281); experiment: cryo-EM structure
T2 sequence (looked up): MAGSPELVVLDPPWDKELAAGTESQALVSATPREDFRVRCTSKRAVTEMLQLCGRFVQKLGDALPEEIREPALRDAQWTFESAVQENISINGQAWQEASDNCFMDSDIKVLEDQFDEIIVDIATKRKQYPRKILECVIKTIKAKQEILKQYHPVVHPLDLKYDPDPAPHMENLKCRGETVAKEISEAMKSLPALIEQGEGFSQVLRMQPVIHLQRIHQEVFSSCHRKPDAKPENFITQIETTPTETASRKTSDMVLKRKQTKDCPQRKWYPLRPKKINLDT

SPC25 residues 92-224 = molecular target: T3, SPC25 residues 92-224 (human, UniProt Q9HBM1 92-224); experiment: cryo-EM structure
T3 sequence (looked up): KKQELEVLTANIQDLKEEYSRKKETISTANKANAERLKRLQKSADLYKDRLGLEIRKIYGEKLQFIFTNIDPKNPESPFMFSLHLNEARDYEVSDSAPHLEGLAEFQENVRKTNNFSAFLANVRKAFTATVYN

Ndc80 complex (NDC80/HEC1, NUF2, SPC24, SPC25), sequence (O14777 whole entry, chain 1 of 2): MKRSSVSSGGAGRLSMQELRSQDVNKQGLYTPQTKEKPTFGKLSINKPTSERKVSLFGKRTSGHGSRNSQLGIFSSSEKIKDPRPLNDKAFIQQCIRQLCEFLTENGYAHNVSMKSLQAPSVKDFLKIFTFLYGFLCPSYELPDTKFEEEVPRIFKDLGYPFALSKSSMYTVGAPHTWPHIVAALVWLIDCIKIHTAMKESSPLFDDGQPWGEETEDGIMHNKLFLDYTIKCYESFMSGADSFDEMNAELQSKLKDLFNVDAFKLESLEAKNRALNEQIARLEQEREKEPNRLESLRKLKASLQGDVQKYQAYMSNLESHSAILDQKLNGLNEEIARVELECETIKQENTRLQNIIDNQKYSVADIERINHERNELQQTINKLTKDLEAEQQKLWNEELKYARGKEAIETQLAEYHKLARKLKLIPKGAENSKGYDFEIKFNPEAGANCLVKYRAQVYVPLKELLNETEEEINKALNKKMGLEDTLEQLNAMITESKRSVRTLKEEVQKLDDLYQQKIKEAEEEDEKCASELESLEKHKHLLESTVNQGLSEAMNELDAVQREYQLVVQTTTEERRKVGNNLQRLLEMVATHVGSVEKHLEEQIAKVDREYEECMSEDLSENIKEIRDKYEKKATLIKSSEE
Ndc80 complex (NDC80/HEC1, NUF2, SPC24, SPC25), sequence (Q9BZD4 whole entry, chain 2 of 2): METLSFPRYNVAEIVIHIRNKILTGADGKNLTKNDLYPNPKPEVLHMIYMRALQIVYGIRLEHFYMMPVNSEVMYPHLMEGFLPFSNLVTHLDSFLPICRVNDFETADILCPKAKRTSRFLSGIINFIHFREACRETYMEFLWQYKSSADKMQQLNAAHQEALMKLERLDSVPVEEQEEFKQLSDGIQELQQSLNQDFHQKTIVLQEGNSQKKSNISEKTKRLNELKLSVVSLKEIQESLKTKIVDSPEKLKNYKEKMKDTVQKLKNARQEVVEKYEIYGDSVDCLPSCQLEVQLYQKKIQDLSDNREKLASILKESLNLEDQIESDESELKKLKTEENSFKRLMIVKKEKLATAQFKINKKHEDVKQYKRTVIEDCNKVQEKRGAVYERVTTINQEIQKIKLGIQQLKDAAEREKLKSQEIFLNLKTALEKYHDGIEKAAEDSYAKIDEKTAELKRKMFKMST

Kd [1]: 1.6 nM
Kd [2]: 2 nM
Molecule: KNL1 residues 2026-2342 (domain or fragment)

Kd [3]: 1 nM
koff [3]: 0.0001 s⁻¹
Molecule: Ndc80 complex (NDC80/HEC1, NUF2, SPC24, SPC25) (from UniProt O14777 1-642; Q9BZD4 1-464; Q8NBT2 1-197; Q9HBM1 1-224)

Kd [4]: ~6 nM
koff [4]: ~0.0001 s⁻¹
B1: Mis12 complex (full length; MIS12, PMF1, NSL1, DSN1) (complex, human)
chain 1: MSVDPMTYEAQFFGFTPQTCMLRIYIAFQDYLFEVMQAVEQVILKKLDGIPDCDISPVQIRKCTEKFLCFMKGHFDNLFSKMEQLFLQLILRIPSNILLPEDKCKETPYSEEDFQHLQKEIEQLQEKYKTELCTKQALLAELEEQKIVQAKLKQTLTFFDELHNVGRDHGTSDFRESLVSLVQNSRKLQNIRDNVEKESKRLKIS
chain 2: MAEASSANLGSGCEEKRHEGSSSESVPPGTTISRVKLLDTMVDTFLQKLVAAGSYQRFTDCYKCFYQLQPAMTQQIYDKFIAQLQTSIREEISDIKEEGNLEAVLNALDKIVEEGKVRKEPAWRPSGIPEKDLHSVMAPYFLQQRDTLRRHVQKQEAENQQLADAVLAGRRQVEELQLQVQAQQQAWQALHREQRELVAVLREPE
chain 3: MAGSPELVVLDPPWDKELAAGTESQALVSATPREDFRVRCTSKRAVTEMLQLCGRFVQKLGDALPEEIREPALRDAQWTFESAVQENISINGQAWQEASDNCFMDSDIKVLEDQFDEIIVDIATKRKQYPRKILECVIKTIKAKQEILKQYHPVVHPLDLKYDPDPAPHMENLKCRGETVAKEISEAMKSLPALIEQGEGFSQVLRMQPVIHLQRIHQEVFSSCHRKPDAKPENFITQIETTPTETASRKTSDMVLKRKQTKDCPQRKWYPLRPKKINLDT
chain 4: MTSVTRSEIIDEKGPVMSKTHDHQLESSLSPVEVFAKTSASLEMNQGVSEERIHLGSSPKKGGNCDLSHQERLQSKSLHLSPQEQSASYQDRRQSWRRASMKETNRRKSLHPIHQGITELSRSISVDLAESKRLGCLLLSSFQFSIQKLEPFLRDTKGFSLESFRAKASSLSEELKHFADGLETDGTLQKCFEDSNGKASDFSLEASVAEMKEYITKFSLERQTWDQLLLHYQQEAKEILSRGSTEAKITEVKVEPMTYLGSSQNEVLNTKPDYQKILQNQSKVFDCMELVMDELQGSVKQLQAFMDESTQCFQKVSVQLGKRSMQQLDPSPARKLLKLQLQNPPAIHGSGSGSCQ

fold reduction of the binding affinity against wild-type Mis12C [5]: 20 fold
fold reduction of the binding affinity against wild-type Mis12C [6]: 10 fold
binding result [7]: binds
binding result [8]: binds
B2: SPC24^109-197/SPC25^92-224 dimer (complex, human)
chain 1: EELKEIEADLERQEKEVDEDTTVTIPSAVYVAQLYHQVSKIEWDYECEPGMVKGIHHGPSVAQPIHLDSTQLSRKFISDYLWSLVDTEW
chain 2: KKQELEVLTANIQDLKEEYSRKKETISTANKANAERLKRLQKSADLYKDRLGLEIRKIYGEKLQFIFTNIDPKNPESPFMFSLHLNEARDYEVSDSAPHLEGLAEFQENVRKTNNFSAFLANVRKAFTATVYN

binding result (SPC25 residues 92-224): binds
B3: SPC24 residues 109-197 (domain or fragment, human, UniProt Q8NBT2 109-197, looked up)
chain: EELKEIEADLERQEKEVDEDTTVTIPSAVYVAQLYHQVSKIEWDYECEPGMVKGIHHGPSVAQPIHLDSTQLSRKFISDYLWSLVDTEW

From paper doi:10.1101/2023.08.07.552315 (bioRxiv, 2023)
